The target of this assay is A/California/7/2009 HA (recombinant HA, rHA) (Influenza A virus A/California/07/2009 …, UniProt C3W5X2).

This is an account of results in paper doi:10.1101/2021.02.25.432905 (bioRxiv, 2021).

B1: 350-145 (antibody, V domains shown)
VH: EVQLVESGGGLVQPGGSLRLSCSASGFTFSSYSMNWVRQAPGKGLEWLSYISSSSGSKYYADSVKGRFTISRDNAKNLVYLQMSSLRADDAAMYYCARSDYAVFYYGMDVWGQGTTVTVSS
VL: EIVMTQSPATLSVSPGERATLSCRASQSVSSNLAWYQQKPGQAPRLLIYGASTRATGIPARFSGSGSGTEFTLTISSLQSEDFAVYYCQQYYNWPPLTFGGGTKVEIK
For the molecule B1, the binding result is on record as “binds”.
